Results on two molecules are retold here after article PMC2679042 (2009).

One assay addresses proMMP-2 (Homo sapiens) (UniProt P08253). The note with it: cited from earlier work.
The next assay has as its target T1, proMMP-2 (Homo sapiens, UniProt P08253).
T1 chain: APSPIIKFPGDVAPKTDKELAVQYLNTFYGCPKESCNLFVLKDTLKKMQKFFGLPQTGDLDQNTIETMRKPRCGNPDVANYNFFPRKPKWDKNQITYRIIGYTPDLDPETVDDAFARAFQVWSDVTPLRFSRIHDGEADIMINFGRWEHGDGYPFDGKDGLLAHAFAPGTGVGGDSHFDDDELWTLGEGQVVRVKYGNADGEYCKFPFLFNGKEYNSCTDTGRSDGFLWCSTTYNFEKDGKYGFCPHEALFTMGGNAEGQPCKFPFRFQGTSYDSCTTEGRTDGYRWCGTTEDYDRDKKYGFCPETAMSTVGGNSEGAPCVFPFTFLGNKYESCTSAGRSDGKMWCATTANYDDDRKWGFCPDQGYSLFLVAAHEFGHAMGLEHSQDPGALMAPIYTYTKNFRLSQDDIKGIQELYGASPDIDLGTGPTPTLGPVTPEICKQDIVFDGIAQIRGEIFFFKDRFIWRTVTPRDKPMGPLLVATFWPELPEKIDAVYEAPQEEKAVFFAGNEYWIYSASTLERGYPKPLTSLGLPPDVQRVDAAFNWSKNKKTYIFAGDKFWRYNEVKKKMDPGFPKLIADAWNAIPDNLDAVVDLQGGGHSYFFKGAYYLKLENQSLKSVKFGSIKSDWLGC
Kind of assay: tryptophan fluorescence quenching.

In general, Kd refers to the concentration at which binding is half-saturated. Regarding bone sialoprotein (from UniProt P21815), the Kd with proMMP-2 (Homo sapiens) is 2.9 nM.

B1: bone sialoprotein (protein)
chain: FSMKNLHRRVKIEDSEENGVFKYRPRYYLYKHAYFYPHLKRFPVQGSSDSSEENGDDSSEEEEEEEETSNEGENNEESNEDEDSEAENTTLSATTLGYGEDATPGTGYTGLAAIQLPKKAGDITNKATKEKESDEEEEEEEEGNENEESEAEVDENEQGINGTSTNSTEAENGNGSSGGDNGEEGEEESVTGANAEDTTETGRQGKGTSKTTTSPNGGFEPTTPPQVYRTTSPPFGKTTTVEYEGEYEYTGANEYDNGYEIYESENGEPRGDNYRAYEDEYSYFKGQGYDGYDGQNYYHHQ
In the assay with proMMP-2, B1 yielded a dissociation constant Kd of 270 nM.
